Results taken from patent publication EP4725966A1, “HUMAN EPIDERMAL GROWTH FACTOR 3 ANTIBODY, PREPARATION METHOD THEREFOR, AND USE THEREOF” (priority 2023, dated 2024).

Assays:
[1] = system: human HER3-overexpressing JIMT-1 cells; assay: ADC cytotoxicity; type: cell-based; settings: FIG. 13
Protocol: (§1) A375 and OVCAR3 cells were seeded in 96-well plates at 5,000 cells per well, and gradient-diluted ADCs (cHE4-G1W-DXd, cHE5-G1W-DXd, cHE7-G1W-DXd, patritumab-DXd, and IgG-DXd) were added. After incubation at 37°C for 5 days, cell viability was measured using CellTiter-Glo (Promega) to evaluate cytotoxicity of the ADCs.
(§2) The cytotoxicity of antibody-drug conjugates based on hHE4-G1W against HER3-expressing HCC1569, A375, and JIMT-1 tumor cells was tested. Antibody-drug conjugates were prepared as described in Example 11. Hydrophobic interaction chromatography indicated the antibody-to-Dxd ratios for cHE4-G1W-DXd, hHE4-G1W-DXd, patritumab-DXd, and negative control IgG-DXd were 1:7, 1:8, 1:7.8, and 1:8, respectively.

[2] = system: HER3-expressing HCC1569 cells; assay: ADC cytotoxicity; type: cell-based; settings: FIG. 13
Protocol: as §1, §2

[3] = system: A375 cells overexpressing human HER3; assay: ADC cytotoxicity, CellTiter-Glo; type: cell-based; settings: Example 21, FIG. 13
[4] = system: SW620 tumor; assay: Tumor inhibition in SW620 tumor-bearing mice; type: in vivo, Female SCID mice; settings: 3 mg/kg, single dose, FIG. 14
Protocol: The anti-tumor efficacy of hHE4-G1W-DXd and cHE5-G1W-DXd was evaluated in SW620 tumor-bearing mice. Female SCID mice were subcutaneously injected with SW620 cells in the dorsal region to establish the xenograft model. After tumor establishment, mice were randomly divided into nine groups and treated with a single dose. Three groups served as negative controls: one group received PBS, and two groups received IgG-DXd at low dose (3 mg/kg) and high dose (6 mg/kg), respectively. Experimental groups were administered with hHE4-G1W-DXd, cHE5-G1W-DXd, or patritumab-DXd at 3 mg/kg or 6 mg/kg. The average Dxd-to-antibody ratio was 8. Mouse body weights and tumor volumes were measured.

[5] = system: HER3-overexpressing A375 cells; assay: Cell imaging of internalization; type: cell-based; settings: 100 nM, FIG. 11
Protocol: A cell imaging microplate detection system was used to monitor the internalization of hHE4-G1W, hHE4-G1W-DXd, patritumab, and patritumab-DXd after binding to HER3 on the surface of A375 tumor cells. hHE4-G1W, hHE4-G1W-DXd, patritumab, and patritumab-DXd (each 100 nM) were incubated with HER3-overexpressing A375 cells at 4°C for 30 minutes, respectively. Unbound antibodies were removed by washing, and PE-labeled goat anti-human Fc secondary antibody (Jackson) was added. The mixture was incubated at 4°C for 30 minutes, and then the unbound secondary antibody was removed by washing. When the antibodies were bound to the surface of A375 cells and had not yet undergone internalization, these samples were designated as the 0h samples. Fluorescence images were acquired using a Biotek Cytation 1 imaging reader. Cells were then incubated at 37°C for 3 hours and imaged again.

patritumab-DXd [reference compound] was tested, and the “cytotoxicity against JIMT-1 cells” value [1] was “significant cytotoxicity”, the “cytotoxicity against HCC1569 cells” value [2] was “significant cytotoxicity” and the “cytotoxicity against A375 cells” value [3] was “significant cytotoxicity”. The tumor growth [4] was “significant tumor growth at day 14 postadministration”, the “binding to HER3 on the surface of A375 cells” value ([5]; 0 hour) was “bound to HER3 expressed on the cell surface” and the “internalization into A375 cells” value ([5]; after 3 hours at 37°C) was “internalized into the A375 cells”.
